In data set [1] the target is T1, BpuR (Borrelia burgdorferi, UniProt O51076 1-122).
T1 sequence: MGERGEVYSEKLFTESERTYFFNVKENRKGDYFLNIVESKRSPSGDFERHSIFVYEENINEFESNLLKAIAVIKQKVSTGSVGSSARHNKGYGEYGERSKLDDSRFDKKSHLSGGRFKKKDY
Nature of the data set: EMSA.

Data set [2] deals with T1, BpuR. Nature of the data set: EMSA. The source holds these as a separate data set.

Where two headings read alike, the source gives them in different places.

B1: sodA1 (ssRNA)
RNA: AAUGAGCCUUGUUAUUGUGGAAGUGGGAAGAAAUAUAAAAAUUGUCAUGGCAAAAGUUA
Consider B1, for which the binding result with BpuR [1] was “binds”.

B2: bpuR RNA (ssRNA)
RNA: ACGUUAAAUGUAGUCAAGUACAAAAACUUGUGUGGAGGAAAUUGAUGGGAGAGAGAGGGGAAGUAUACU
As for B2, the binding result in the data set with BpuR [1] was “binds”.

B3: sodA2 (ssRNA)
RNA: UCAUGGCAAAAGUUAAAACAGGAGGUUUUUAUGUUUAAGCUGCCAGAACUUGGUUAUGAU
As for B3, the binding result with BpuR [2] is given as “no binding”.

The values above are taken from PMC6736767.
